Experimental data taken from publication PMC4073494 (Nature communications, 2014).

Molecular target: purified full-length EED (AlphaScreen) (UniProt O75530 1-441)
Experiment: AlphaScreen or HTRF

Sequence of purified full-length EED (AlphaScreen) (O75530 whole entry): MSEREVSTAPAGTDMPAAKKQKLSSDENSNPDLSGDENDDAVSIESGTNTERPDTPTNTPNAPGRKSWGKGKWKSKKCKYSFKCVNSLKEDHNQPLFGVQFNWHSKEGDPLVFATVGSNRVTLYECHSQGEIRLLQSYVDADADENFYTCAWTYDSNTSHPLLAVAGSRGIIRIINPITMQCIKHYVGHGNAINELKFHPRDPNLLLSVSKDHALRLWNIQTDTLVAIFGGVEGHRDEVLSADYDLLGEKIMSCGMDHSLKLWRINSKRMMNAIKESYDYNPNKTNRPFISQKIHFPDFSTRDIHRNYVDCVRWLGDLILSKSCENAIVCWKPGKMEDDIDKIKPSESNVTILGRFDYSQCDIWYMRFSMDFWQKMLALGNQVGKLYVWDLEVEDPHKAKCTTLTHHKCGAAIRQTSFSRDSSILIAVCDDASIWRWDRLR

- EC50: 0.148 µM
B1: unlabeled full-length EZH2 (AlphaScreen) (natural protein)
chain: not shown
